The target of this assay is T1, BST2 long isoform (BST2-D, full length BST2, 180 amino acids) expressed on HEK293 transfectants (human, UniProt Q10589 1-161).
T1 construct: also called HEK293-long; HEK293 WT-BST2
In words: flow cytometry, hybridoma supernatant on HEK293-long cells. How it is done:
For flow cytometry assays, cells were detached using 0.05% trypsin-EDTA, counted, washed and resuspend with FACS Buffer (PBS, 2% FBS, 2 mM EDTA). 2×10⁵ cells in 100 ul/well were placed in U-bottom 96-well plate and centrifuged (1000 RPM/3 min/4° C.). The buffer was discarded and 100 ul of the previously collected supernatants with selected monoclonal antibodies were added to the wells and incubated on ice for 30 minutes. After incubation, the plate was washed three times with FACS buffer and 50 ul of diluted (1/250) secondary antibody (Donkey anti-mouse Allophycocyanin (APC) conjugated) were added to the wells and incubated on ice for 20 minutes protected from light. The final wash was repeated 4 times, and the samples were transferred and analyzed at the South Campus Flow Cytometry & Cell Sorting Core Laboratory at MD Anderson Cancer Center. FACS data were analyzed with FlowJo™ Software—for Windows (Version 10.6.1. Ashland, Oreg.: Becton, Dickinson and Company; 2020).

T1 sequence (Q10589 1-161 limits assumed): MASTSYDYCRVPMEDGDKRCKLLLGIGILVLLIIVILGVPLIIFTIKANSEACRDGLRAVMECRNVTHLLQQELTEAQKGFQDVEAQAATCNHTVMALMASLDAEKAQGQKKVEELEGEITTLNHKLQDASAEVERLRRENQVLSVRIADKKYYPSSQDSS

B1: BM7 antibody (antibody, IgG1, V domains shown)
VH: QVTLKESGPGILKPSQTLSLTCSFSGFSLSTSGVGVGWIRQPSGKGLEWLAHIWWDDDEYYNPSLKSQLTISKDTSRNQVFLKITSVDTSDTATYYCARRYYGDAMDYWGQGTAVTVSS
VL: DVVMTQTPVSLPVSLGDQASISCRSTQSLVHSNGHTYLHWYLQKPGQSPKLLIYKVSNRFSGVPDRFSGTGSGTDFTLKISRVEAEDLGVYFCSQSTHVPYTFGGGTKLEIK
notes: Tested as hybridoma supernatant
For B1, the “percentage of cells stained” value was 39.8%.

For the origin of these results see patent US20230235074A1 (University of Texas, published 2023).
